± gives the standard error. This sample holds only a part of the variants without activity.
B1: glmS ribozyme (parent)
chain: AUAAAAGCGCCAGAACUACAGAAAUGUAGUUGACGAGGAGGAGGUUUAUCGAAUUUUCGGCGGAUGCCUCCAAA

Variants of: B1
Experiment: self-cleavage kobs at 10000 uM GlcN6P; higher = faster cleavage; RNA array
Conditions: with glucosamine-6-phosphate
Procedure, shortened: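 Glucosamine-6-phosphate, from 40 μM to 10 mM in HEPES/KCl/Mg(OAc)2 buffer, was flowed over sequenced MiSeq chips carrying barcoded ribozyme variants transcribed in situ by E. coli RNA polymerase. A hybridised Cy3 probe tracked the variants at 37 °C as tiles were imaged over ~14 h. kobs, kcat and KM were obtained by fitting normalised per-tile medians to exponential decays and then applying weighted Michaelis–Menten fits across concentrations.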

Variant | self-cleavage kobs at 10000 uM GlcN6P [s⁻¹]
C10U U31C U57G | < 1e-05
A36C A48U G63A | < 1e-05
A6C U31A G44A U65A | < 1e-05
U45A A53G U55A U65A C67A | 0.000759 ± 0.00025
G13U G38C C58U C61U | < 1e-05
A6G C10A U30C U49A | < 1e-05
U31G G38C G40C G60C U69A C71A | < 1e-05
A39C U47C C70U | 0.000412 ± 0.0001
G40A A64U | 2.07e-05 ± 9.5e-06
A6G U45A U57G | < 1e-05
A6U A14U G29U | < 1e-05
C10G C11G U55C G60A | < 1e-05
A6C U31C G35A A42C | < 1e-05
C16U G29C G35U A39G | < 1e-05
G13C U47A | 7.19e-05 ± 9.5e-06
C34U G43U U57G U65G | < 1e-05
G26U U49G U56A | 0.00027 ± 6.8e-05
C11G A42U C50G C67U | 0.000569 ± 0.00021
A14U C50G G62A A64G | 0.000115 ± 2.4e-05
C16A G35C A64C | < 1e-05
C8A A12G U31G A39U | < 1e-05
A12C U30A U47A G51U | < 1e-05

Variant | self-cleavage kobs at 10000 uM GlcN6P [s⁻¹]
A12U U30A A39U U55C | 0.0143 ± 0.0028
C10U A33G G35C U45G C68U | < 1e-05
G29A C67U C70U | 6.18e-05 ± 1.1e-05
A39U U46A A53G | 0.00108 ± 0.00026
G29A C34G C67U | < 1e-05
G13C G43A | < 1e-05
U31A G66C | 0.000307 ± 9.3e-05
C8A A14U A15G G29A | < 1e-05
G59A C68A U69A | < 1e-05
U30G A36G G40U C68A | < 1e-05
G7U G9U G44A C68G | < 1e-05
A6C G32U C50A | < 1e-05
G29A A33U | 3.01e-05 ± 5.5e-06
A33G G37A U69G | < 1e-05
A14G A64G C68G | < 1e-05
G32C U54A U56G | 3.42e-05 ± 1.1e-05
C8G C16U A53G C61U | < 1e-05
A15G G29C G43U G60U | < 1e-05
A39G U45G C70A | 0.000127 ± 4.2e-05
A15G G63U A64G | < 1e-05
A14G A15G A48C | 0.00148 ± 0.00029
G9C G32C A36U U46A | < 1e-05

Variant | self-cleavage kobs at 10000 uM GlcN6P [s⁻¹]
A12U C34A A39U C70U | < 1e-05
C10U A15C U31C | < 1e-05
A6G C16A G37C U69C | < 1e-05
G13C A15U C58G | 0.000104 ± 1.7e-05
A12U A33C C34U C70G | < 1e-05
A6U U31C A36C | < 1e-05
G29U G37A C71U | 0.000169 ± 4e-05
G32A A33U G37U | < 1e-05
G7U C50G G51A C70G | 6.12e-05 ± 1.7e-05
A14U U55C C67A C70A C71U | < 1e-05
G32C G38C G60U C67G | < 1e-05
C10U G37A G44A C70U | < 1e-05
G37C U55A | 4.97e-05 ± 1e-05
G7C A15C G41A | < 1e-05
C8A C11G U49C C67G | < 1e-05
G32C A36U U69G C70A | 0.000103 ± 2.4e-05
A15U A53U G63C | < 1e-05
C10U G13C G51A A53U A64G G66A | < 1e-05
A15G C16U G51U | < 1e-05
A14G U47A G59U C70U | 9.51e-05 ± 1.8e-05
C10U G43A C71U | < 1e-05
U46A U47G G66C | 0.000401 ± 9.3e-05

Variant | self-cleavage kobs at 10000 uM GlcN6P [s⁻¹]
C16G G32U C70U | 0.000712 ± 0.00013
G32U U57A C68G | 6.42e-05 ± 2.1e-05
G7C G41A C61U | < 1e-05
A12U C16G G40U | 0.000769 ± 0.00016
G7C C50G C61A | 4e-05 ± 1.9e-05
G29A C58U C70U | 5.99e-05 ± 1.7e-05
A12C C68G | 2.93e-05 ± 8.5e-06
A12G U30G U47C U49C | < 1e-05
G29C U49A C50A | < 1e-05
G40U G43U U54C | < 1e-05
C8U A39C G41A U57C G59U | < 1e-05
G35C G37U C68G | 7.56e-05 ± 2.4e-05
C58U G63C C70U | < 1e-05
A14G G44C U55G C67U | 0.000221 ± 4.1e-05
A14U A53C C67U | 0.000208 ± 3.8e-05
A48U C50G | < 1e-05
A12U C50G G62A C71U | 8.18e-05 ± 2.2e-05
A6G A52U G60A G66A | < 1e-05
U45A G62A | < 1e-05

Source: the supplement of paper PMC7125110
